Where a chain is given by its changes, count along the chain named. Numbers in names are those of the source.
Key:
[1] = Thermostability assay of βAR34-424 and mutants (heat detergent-solubilised receptor 30 min, then [3H]-DHA binding); conditions: turkey βAR expressed in E. coli, DDM-solubilised, heated 30 min without ligand, [3H]-DHA binding; mean ± S.E. from duplicates
Method: Binding assays were performed using [^3H]-dihydroalprenolol (DHA) as radioligand as described under “Methods”. Samples were heated for 30 minutes at different temperatures before the assay. […] Data points are from duplicates of one single experiment. This experiment has been repeated several times with similar results.
Expression of βAR and the mutants was performed in X10 cells (Stratagene). Cultures of 50 ml of 2×TY medium containing ampicillin (100 μg/ml) were grown at 37° C. with shaking until OD600=3 and then induced with 0.4 mM IPTG. Induced cultures were incubated at 25° C. for 4 h and then cells were harvested by centrifugation at 13,000×g for 1 min (aliquots of 2 ml) and stored at ±20° C. For the assays, cells were broken by freeze-thaw (five cycles), resuspended in 500 μl of buffer [20 mM Tris pH 8, 0.4 M NaCl, 1 mM EDTA and protease inhibitors (Complete™, Roche)]. After an incubation for 1 h at 4° C. with 100 μg/ml lysozyme and DNase I (Sigma), samples were solubilized with 2% DDM on ice for 30 minutes. Insoluble material was removed by centrifugation (15,000×g, 2 min, 4° C.) and the supernatant was used directly in radioligand binding assays.
Single point binding assays contained 20 mM Tris pH 8, 0.4 M NaCl, 1 mM EDTA, 0.1% DDM (or corresponding detergent) with 50 nM [^3H]-DHA and 20-100 μg membrane protein in a final volume of 120 μl; equilibration was for 1 h at 4° C. Thermostability was assessed by incubating the binding assay mix, with or without [^3H]-DHA at the specified temperature for 30 minutes; reactions were placed on ice and [^3H]-DHA added as necessary and equilibrated for a further hour. […] Radioactivity was counted on a Beckman LS6000 liquid scintillation counter and data were analyzed by nonlinear regression using Prism software (GraphPad).

[2] = Stability of wild-type and mutant A2aR in different detergents; assay type: physicochemical; design: key: It was not possible to determine the Tm for some receptor-detergent combinations, because the receptor was too unstable (†)
[3] = Thermostability of A2aR and mutants (ligand binding after or during heating); assay type: physicochemical; conditions: for Tm +agonist / Tm +antagonist / Tm −agonist / Tm −antagonist: 1% DDM (no glycerol); for Tm +agonist: agonist-occupied state; for Tm +antagonist: antagonist-occupied state; for Tm −agonist / Tm −antagonist: apo-state; for Tm −agonist: agonist binding; for Tm −antagonist: antagonist binding; for Tm: ZM241385 bound; for thermostability assayed with 3H-ZM241385 (antagonist) / thermostability measured with 3H-NECA (agonist): Ligand(−) format, binding after the heating step
From the text: FIG. 12 Flow chart showing the two different assay formats of ligand (+) and ligand (−) used to determine receptor thermostability.
• 1. 315 site-directed mutants made between residues 2-316 of A2aR. • 2. All of these mutants have been assayed for thermostability using an assay measuring agonist and antagonist binding after the heating step (Ligand(−) format as described in FIG. 12). • a. […] Mutations have been combined to generate mutants in a putative antagonist conformation. Wildtype A2aR has a Tm of 31° C. with ZM241385 bound. • a. Rant17 A54L+K122A+L235A Tm 48° C. (ZM241385 bound) • b. Rant19 A54L, T88A, V239A+A204L Tm 47° C. (ZM241385 bound) • c. Rant21 A54L, T88A, V239A+K122A Tm 49° C. (ZM241385 bound) • 4. Mutations from the agonist screen have been combined, but have led to only a very low level of improvement in Tm of +2° C.

Molecule: m6-10: βAR34-424 mutant R68S, Y227A, A282L, A334L
- Tm [1]: 47.4 ± 1.1 °C

Molecule: Wildtype A2aR: human adenosine A2a receptor, parent
- Tm Agonist-binding ([2]; 0.003% LDAO): 28 °C
- Tm Antagonist-binding ([2]; 0.003% LDAO): 32 °C
- Tm Agonist-binding ([2]; 0.006% FC12): 37 °C
- Tm Antagonist-binding ([2]; 0.006% FC12): 43 °C
- Tm Agonist-binding ([2]; 0.01% DDM): 27 °C
- Tm Antagonist-binding ([2]; 0.01% DDM): 25 °C
- Tm Agonist-binding ([2]; 0.1% DM): 23 °C
- Tm Antagonist-binding ([2]; 0.1% DM): 10 °C
- Tm Agonist-binding ([2]; 0.3% NG): †
- Tm Antagonist-binding ([2]; 0.3% NG): †
- Tm Agonist-binding ([2]; 0.3% NM): 22 °C
- Tm Antagonist-binding ([2]; 0.3% NM): <4 °C
- Tm Agonist-binding ([2]; 0.6% OG): <9 °C
- Tm Antagonist-binding ([2]; 0.6% OG): †
- Tm +agonist [3]: 29 °C
- Tm +antagonist [3]: 32 °C
- Tm −agonist [3]: 21 °C
- Tm −antagonist [3]: 31 °C
- Tm [3]: 31 °C

Molecule: m20: βAR34-424 mutant R68S, M90V, F327A, A334L
- Tm [1]: 48.4 ± 0.7 °C

Molecule: m6-5: βAR34-424 mutant R68S, A234L, A282L, A334L
- Tm [1]: 41.9 ± 0.5 °C

B1: Rant17: A2aR mutant A54L+K122A+L235A (protein, UniProt P29274 1-412, looked up, variant A54L K122A L235A)
Adenosine receptor A2a: MPIMGSSVYITVELAIAVLAILGNVLVCWAVWLNSNLQNVTNYFVVSLAAADILVGVLAIPFAITISTGFCAACHGCLFIACFVLVLTQSSIFSLLAIAIDRYIAIRIPLRYNGLVTGTRAAGIIAICWVLSFAIGLTPMLGWNNCGQPKEGKNHSQGCGEGQVACLFEDVVPMNYMVYFNFFACVLVPLLLMLGVYLRIFLAARRQLKQMESQPLPGERARSTLQKEVHAAKSAAIIVGLFALCWLPLHIINCFTFFCPDCSHAPLWLMYLAIVLSHTNSVVNPFIYAYRIREFRQTFRKIIRSHVLRQQEPFKAAGTSARVLAAHGSDGEQVSLRLNGHPPGVWANGSAPHPERRPNGYALGLVSGGSAQESQGNTGLPDVELLSHELKGVCPEPPGLDDPLAQDGAGVS
- Tm [3]: 48 °C

B2: G123A: A2aR point mutant (protein, UniProt P29274 1-412, looked up, variant G123A)
Adenosine receptor A2a: B1 Adenosine receptor A2a with L54A, A122K, G123A, A235L
- thermostability assayed with 3H-ZM241385 (antagonist) [3]: improved thermostability

B3: G114 A: A2aR point mutant (protein, UniProt P29274 1-412, looked up, variant G114A)
Adenosine receptor A2a: B1 Adenosine receptor A2a with L54A, G114A, A122K, A235L
- thermostability assayed with 3H-ZM241385 (antagonist) [3]: improved thermostability
- thermostability measured with 3H-NECA (agonist) [3]: improved thermostability

B4: R199A: A2aR point mutant (protein, UniProt P29274 1-412, looked up, variant R199A)
Adenosine receptor A2a: B1 Adenosine receptor A2a with L54A, A122K, R199A, A235L
- thermostability measured with 3H-NECA (agonist) [3]: improved thermostability

B5: A184L: A2aR point mutant (protein, UniProt P29274 1-412, looked up, variant A184L)
Adenosine receptor A2a: B1 Adenosine receptor A2a with L54A, A122K, A184L, A235L
- thermostability measured with 3H-NECA (agonist) [3]: improved thermostability

B6: V239A: A2aR point mutant (protein, UniProt P29274 1-412, looked up, variant V239A)
Adenosine receptor A2a: B1 Adenosine receptor A2a with L54A, A122K, A235L, V239A
- thermostability assayed with 3H-ZM241385 (antagonist) [3]: improved thermostability

B7: L167A: A2aR point mutant (protein, UniProt P29274 1-412, looked up, variant L167A)
Adenosine receptor A2a: B1 Adenosine receptor A2a with L54A, A122K, L167A, A235L
- thermostability measured with 3H-NECA (agonist) [3]: improved thermostability

B8: P149A: A2aR point mutant (protein, UniProt P29274 1-412, looked up, variant P149A)
Adenosine receptor A2a: B1 Adenosine receptor A2a with L54A, A122K, P149A, A235L
- thermostability assayed with 3H-ZM241385 (antagonist) [3]: improved thermostability

B9: V57A: A2aR point mutant (protein, UniProt P29274 1-412, looked up, variant V57A)
Adenosine receptor A2a: B1 Adenosine receptor A2a with L54A, V57A, A122K, A235L
- thermostability assayed with 3H-ZM241385 (antagonist) [3]: improved thermostability

B10: K122A: A2aR point mutant (protein, UniProt P29274 1-412, looked up, variant K122A)
Adenosine receptor A2a: B1 Adenosine receptor A2a with L54A, A235L
- thermostability assayed with 3H-ZM241385 (antagonist) [3]: improved thermostability

B11: K315A: A2aR point mutant (protein, UniProt P29274 1-412, looked up, variant K315A)
Adenosine receptor A2a: B1 Adenosine receptor A2a with L54A, A122K, A235L, K315A
- thermostability measured with 3H-NECA (agonist) [3]: improved thermostability

B12: A54L: A2aR point mutant (protein, UniProt P29274 1-412, looked up, variant A54L)
Adenosine receptor A2a: B1 Adenosine receptor A2a with A122K, A235L
- thermostability assayed with 3H-ZM241385 (antagonist) [3]: improved thermostability

B13: Rag 1: A2aR mutant A184L/R199A/L272A (protein, UniProt P29274 1-412, looked up, variant A184L R199A L272A)
Adenosine receptor A2a: B1 Adenosine receptor A2a with L54A, A122K, A184L, R199A, A235L, L272A
- Tm +agonist [3]: 34 °C
- Tm −agonist [3]: 26 °C

B14: G118A: A2aR point mutant (protein, UniProt P29274 1-412, looked up, variant G118A)
Adenosine receptor A2a: B1 Adenosine receptor A2a with L54A, G118A, A122K, A235L
- thermostability assayed with 3H-ZM241385 (antagonist) [3]: improved thermostability
- thermostability measured with 3H-NECA (agonist) [3]: improved thermostability

B15: T119A: A2aR point mutant (protein, UniProt P29274 1-412, looked up, variant T119A)
Adenosine receptor A2a: B1 Adenosine receptor A2a with L54A, T119A, A122K, A235L
- thermostability assayed with 3H-ZM241385 (antagonist) [3]: improved thermostability

B16: A231L: A2aR point mutant (protein, UniProt P29274 1-412, looked up, variant A231L)
Adenosine receptor A2a: B1 Adenosine receptor A2a with L54A, A122K, A231L, A235L
- thermostability assayed with 3H-ZM241385 (antagonist) [3]: improved thermostability

B17: L235A: A2aR point mutant (protein, UniProt P29274 1-412, looked up, variant L235A)
Adenosine receptor A2a: B1 Adenosine receptor A2a with L54A, A122K
- thermostability assayed with 3H-ZM241385 (antagonist) [3]: improved thermostability

B18: G152A: A2aR point mutant (protein, UniProt P29274 1-412, looked up, variant G152A)
Adenosine receptor A2a: B1 Adenosine receptor A2a with L54A, A122K, G152A, A235L
- thermostability assayed with 3H-ZM241385 (antagonist) [3]: improved thermostability

B19: Rant 5: A2aR mutant A54L/T88A/V239A (protein, UniProt P29274 1-412, looked up, variant A54L T88A V239A)
Adenosine receptor A2a: B1 Adenosine receptor A2a with T88A, A122K, A235L, V239A
- Tm +antagonist [3]: 46 °C
- Tm −antagonist [3]: 42 °C

B20: Rant19: A2aR mutant A54L, T88A, V239A+A204L (protein, UniProt P29274 1-412, looked up, variant A54L T88A V239A A204L)
Adenosine receptor A2a: B1 Adenosine receptor A2a with T88A, A122K, A204L, A235L, V239A
- Tm [3]: 47 °C

B21: A204L: A2aR point mutant (protein, UniProt P29274 1-412, looked up, variant A204L)
Adenosine receptor A2a: B1 Adenosine receptor A2a with L54A, A122K, A204L, A235L
- thermostability assayed with 3H-ZM241385 (antagonist) [3]: improved thermostability

B22: E151A: A2aR point mutant (protein, UniProt P29274 1-412, looked up, variant E151A)
Adenosine receptor A2a: B1 Adenosine receptor A2a with L54A, A122K, E151A, A235L
- thermostability assayed with 3H-ZM241385 (antagonist) [3]: improved thermostability

B23: H75A: A2aR point mutant (protein, UniProt P29274 1-412, looked up, variant H75A)
Adenosine receptor A2a: B1 Adenosine receptor A2a with L54A, H75A, A122K, A235L
- thermostability assayed with 3H-ZM241385 (antagonist) [3]: improved thermostability

B24: T88A: A2aR point mutant (protein, UniProt P29274 1-412, looked up, variant T88A)
Adenosine receptor A2a: B1 Adenosine receptor A2a with L54A, T88A, A122K, A235L
- thermostability assayed with 3H-ZM241385 (antagonist) [3]: improved thermostability
